Target: IL-15Rα expressed by TF-1 cells (human) (UniProt Q13261)
Assay: cell-based or functional assay

Sequence of UniProt Q13261 (Q13261 31-267): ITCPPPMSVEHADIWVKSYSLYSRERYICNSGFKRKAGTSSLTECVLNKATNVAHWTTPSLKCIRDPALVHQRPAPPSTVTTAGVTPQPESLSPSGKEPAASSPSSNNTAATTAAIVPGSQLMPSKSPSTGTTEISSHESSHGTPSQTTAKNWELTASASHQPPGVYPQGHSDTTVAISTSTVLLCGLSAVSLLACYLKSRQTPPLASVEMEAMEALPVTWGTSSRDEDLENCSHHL

| EC50 (pM), TF-1β proliferation | Maximal induction (% WT), TF-1β proliferation | Relative activity (% WT), TF-1β proliferation | Substance |
| --- | --- | --- | --- |
| > 20 pM | 0 % WT | < 30 % WT | FLAG-IL-15 L44D (from UniProt P40933 49-162) (ligand) |
| > 60 pM | 0 % WT | < 10 % WT | FLAG-IL-15 L47D (from UniProt P40933 49-162) (ligand) |

Reference: patent US20110158938A1
